For 62 molecules, peptide exchange yield results are on record in US20240358755A1 (IMMATICS BIOTECHNOLOGIES, published 2024).

Assay [1] addresses T1, HLA-B*07:02 (human).
T1 construct: Peptide-receptive monomer in the UV-ligand exchange assay
Kind of assay: UV peptide exchange, anti-b2m ELISA; exchange yield grade. From the text:
(§1) Candidate peptides for T cell based therapies according to the present invention were further tested for their MHC binding capacity (affinity). The individual peptide-MHC complexes were produced by UV-ligand exchange, where a UV-sensitive peptide is cleaved upon UV-irradiation and exchanged with the peptide of interest as analyzed. Only peptide candidates that can effectively bind and stabilize the peptide-receptive MHC molecules prevent dissociation of the MHC complexes. To determine the yield of the exchange reaction, an ELISA was performed based on the detection of the light chain (β2m) of stabilized MHC complexes. The assay was performed as generally described in Rodenko et al. (Rodenko et al., 2006).
(§2) 96 well MAXISorp plates (NUNC) were coated over night with 2 μg/ml streptavidin in PBS at room temperature, washed 4× and blocked for 1 h at 37° C. in 2% BSA containing blocking buffer. […] Peptide-MHC monomers of the UV-exchange reaction were diluted 100-fold in blocking buffer. Samples were incubated for 1 h at 37° C., washed four times, incubated with 2 μg/ml HRP conjugated anti-β2m for 1 h at 37° C., washed again and detected with TMB solution that is stopped with […]. Absorption was measured at 450 nm.
(ELISA stands for enzyme-linked immunosorbent assay.)

In assay [2] the target is T2, HLA-A*02:01 (human).
T2 construct: Peptide-receptive MHC class I monomer in the UV-ligand exchange assay
The assay is described as above.
Text: as §1, §2

On to LPHPVNSGL, for which, in assay [1], the peptide exchange yield lay within 50 to 75%.
In turn, APSLARFLSL displayed a peptide exchange yield in assay [1] of at least 75%.
For the molecule ASRIQVILL, the peptide exchange yield in assay [1] lay within 50 to 75%.
APQPRSLAA gave a peptide exchange yield in assay [1] of at least 75%.
In assay [1], SLRVPSPAL gave a peptide exchange yield of 50 to 75%.
For IPLHFSTAF, the peptide exchange yield in assay [1] is at least 75%.
As to GLLDAFLRL, in assay [2], the peptide exchange yield was at least 75%.
Still for that read-out and setting: then LLGVVSHSV, with at least 75%.
In assay [1], SPLPHLGPL displayed a peptide exchange yield of 50 to 75%.
In turn, RPQGVGPAA registered a peptide exchange yield in assay [1] of at least 75%.
For the molecule SPSSNSREL, in assay [1], the peptide exchange yield was 50 to 75%.
In turn, ALIVLHLSL displayed a peptide exchange yield in assay [2] of 20 to 50%.
As for APGPRSQGL, the peptide exchange yield in assay [1] lay within 50 to 75%.
Still for that read-out and setting: then MPIQVLKGL, with at least 75%; and SPSSPLLLLA, with 50 to 75%.
On to LVFESVVAA, for which the peptide exchange yield in assay [2] was at least 75%.
In assay [1], QPAPQPLL yielded a peptide exchange yield of 50 to 75%.
In turn, ALGPMAFRV registered a peptide exchange yield in assay [2] of at least 75%.
The molecule MPANFETIGF registered a peptide exchange yield in assay [1] of at least 75%.
Consider LPTRSLPAF, for which, in assay [1], the peptide exchange yield was 50 to 75%.
In assay [1], MPWVLMSPF displayed a peptide exchange yield of at least 75%.
For SLFPISLTV, in assay [2], the peptide exchange yield was at least 75%.
TLNVLITL registered a peptide exchange yield in assay [2] of 20 to 50%.
LPVHGPLPLLL yielded a peptide exchange yield in assay [1] of 50 to 75%.
LLSRGILIL: the peptide exchange yield in assay [2] is at least 75%.
As to RPSPVRVAAL, the peptide exchange yield in assay [1] is at least 75%.
SLQESLPNA: in assay [2], the peptide exchange yield was in the range of 50 to 75%.
MPAFLSRASAL: the peptide exchange yield in assay [1] is at least 75%.
Take ILMILQPQL: in assay [2], the peptide exchange yield is at least 75%.
In turn, APLLPGPAA registered a peptide exchange yield in assay [1] of at least 75%.
The molecule VPHHLLSSV returned a peptide exchange yield in assay [1] of at least 75%.
In turn, YPDVPIGQL gave a peptide exchange yield in assay [1] of 50 to 75%.
SPIGLSLIL registered a peptide exchange yield in assay [1] of at least 75%.
YVGPTRLEL yielded a peptide exchange yield in assay [1] of at least 75%.
As for RLQEGLAAL, the peptide exchange yield in assay [2] is at least 75%.
MPFLKVPPL: in assay [1], the peptide exchange yield is at least 75%.
Molecule HPRESLNMLVAF returned a peptide exchange yield in assay [1] of at least 75%.
SPVSASWIL came in with a peptide exchange yield in assay [1] of at least 75%.
On the same count and under the same terms, the value for MPCTTILRI was at least 75%.
In assay [2], ILVTAWKGV displayed a peptide exchange yield of 50 to 75%.
The molecule SLSKLVATV gave a peptide exchange yield in assay [2] of at least 75%.
For the molecule AVDLGVLEL, in assay [1], the peptide exchange yield was 50 to 75%.
With MPKLFLTAC, the peptide exchange yield in assay [1] is at least 75%.
As to TPLTRTTL, the peptide exchange yield in assay [1] lay within 50 to 75%.
Still for that read-out and setting: the value for RPLILIRI was 20 to 50%.
As to IIIDRILLL, the peptide exchange yield in assay [2] is at least 75%.
SPAPSLARFLSL: in assay [1], the peptide exchange yield was at least 75%.
As to LPALLRSL, the peptide exchange yield in assay [1] was at least 75%.
Consider SLKSSILFL, for which the peptide exchange yield in assay [2] fell in the range of 50 to 75%.
Take APLRAGWAA: the peptide exchange yield in assay [1] is at least 75%.
In the case of FLLLEKGGEL, the peptide exchange yield in assay [2] is at least 75%.
In turn, RAPLPLLLL yielded a peptide exchange yield in assay [1] of 50 to 75%.
Take NPELLVILL: the peptide exchange yield in assay [1] is 50 to 75%.
Molecule VLQSLQHEL yielded a peptide exchange yield in assay [2] of at least 75%.
As to VVHGGMSIF, the peptide exchange yield in assay [1] fell in the range of 20 to 50%.
Turning to RPIWDVRSA, in assay [1], the peptide exchange yield was at least 75%.
On the same count and under the same terms, then RPWLSSPTGL, with at least 75%; and TPSHSTPSF, with 50 to 75%.
IQAPALLKV displayed a peptide exchange yield in assay [2] of at least 75%.
In assay [1], RPSLPCRSF returned a peptide exchange yield of 50 to 75%.
The molecule RLLRLIPIL registered a peptide exchange yield in assay [2] of at least 75%.
Consider IPISIFKMA, for which the peptide exchange yield in assay [1] lay in the range of 50 to 75%.
